One test deals with C-terminus of Cav2.3. In words: Co-immunoprecipitation assay in HEK cells, Cav2.3 C-terminus. As to conditions: tagged proteins co-expressed in HEK cells; listed as WT. It is filed as binding. Here is the method: (§1) Immunoprecipitation. HEK cells co-transfected with expression constructs were collected 20 hrs post transfection. The cells were washed in PBS, scraped and homogenized in the lysis buffer (10 mM Tris pH 8.0, 150 mM NaCl, 5 mM EDTA) supplemented with protease inhibitors (Complete; Roche). Cellular debris was removed by centrifugation at 12,000×g for 10 min at 4° C. The supernatants were precleared with protein G-Sepharose (Amersham Pharmacia Biotech) for 2 h at 4° C. and then incubated with monoclonal anti-Flag M2-Agarose beads (Sigma) or anti-Myc antibody (Santa Cruz) for 12 hrs at 4° C. Protein G-Sepharose was used for precipitation with anti-Myc antibody. The beads were washed with lysis buffer five times and then eluted either with Flag peptide or SDS sample buffer for immunoblot analyses.
(§2) Western blot analysis. Confluent HEK cells transiently transfected with expression constructs were placed on ice and washed twice with ice-cold PBS. Cells were scraped from the dishes and homogenized in a hypotonic buffer (0.25M sucrose, 10 mM Tris-HCl, 10 mM NaCl, 1 mM EDTA, pH7.5) supplemented with mixture of protease inhibitors (Complete; Roche). The lysate was centrifuged at 3,300 g for 5 min. to remove nuclei and the supernatant was used as total cytosolic protein. […]

In a further test the test system is Bid. In words: Co-expression with DsRed-Bid vector (marker for caspase activation). As to conditions: fetal mouse primary hippocampal neuron. It is filed as cell-based. The text has this: Clarifying the exact stage or stages of apoptosis thru which myoclonin/EFHC1 acts and by what stage JME mutations reverse apoptosis is important for development of a curative treatment. Typically, apoptotic stimuli, through a Bcl-2 family mediated checkpoint, cause redistribution of cytochrome-c from mitochondria to cytosol. Cytosolic cytochrome-c binds to APAF-1 in the presence of dATP or ATP, result in recruitment and activation of caspase 9 and subsequent cleavage of caspase 3. Caspase 3 ultimately produces extensive DNA fragmentation. […] After establishing Bid activation, the next step is to establish that myoclonin acting through Bid, cause mitochondrial cytochrome C release and then caspase 3 activation. After establishing this step, studies will ask whether myoclonin also acts thru the AIF and a caspase 3 independent cell death mechanisms.

For another test, the target named is T1, R-type VDCC (Cav2.3) (Oryctolagus cuniculus, UniProt Q02343).
T1 construct: expressed in transfected cells; host or cells: BHK (BII-104-2) cells
In words: Patch-clamp analyses of BHK cells stably expressing Cav2.3 transfected with EFHC1 constructs. Particulars: whole cell patch-clamp, 24-48 hr after transfection. It is filed as cell-based. The procedure: Electrophysiological analysis. A baby hamster kidney (BHK) cell line BHK (BII-104-2) stably transfected with the ociE (BII), α2/δ and β1a subunits, were cultured in DMEM medium containing 10% fetal bovine serum (FBS), 30 U/mL penicillin and 30 μg/mL streptomycin. To transiently express wild type or mutant EFHC1, BHK (BII-104-2) cells were transfected with the pEGFP-C2 plasmids (Clonetech) containing EGFP fused with cDNA for EFHC1 or its mutants using SuperFect Transfection Reagent (QIAGEN). For control experiments, EGFP was transiently expressed by transfecting BHK (BII-104-2) with the same amount of pEGFP without the EFHC1 inserts. Cells were trypsinized, diluted with the DMEM medium, and plated onto glass coverslips 18 hrs after transfection. Ca^2+ currents were recorded 24-48 hr after transfection from GFP-positive cells. Currents from BHK (BII-104-2) cells were recorded at room temperature (22-25° C.) using patch-clamp techniques of whole cell mode with an EPC-9 amplifier (HEKA, Germany). Patch pipettes were made from borosilicate glass capillaries (1.5 mm outer diameter and 0.87 mm inner diameter; Hilgenberg) by using a model P-97 Flaming-Brown micropipette puller (Sutter Instrument Co., CA). Pipette resistance ranged from 2 to 3 MΩ when filled with the pipette solutions described below. The series resistance was electronically compensated to >70% and both the leakage and the remaining capacitance were subtracted by −P/6 method. Currents were sampled at 100 kHz in activation kinetics, otherwise sampled at 50 kHz and filtered at 10 kHz. Calcium currents were recorded in an external solution that contained (in mM): 3 CaCl2, 148 tetraethylammonium chloride (TEA-C1), 10 glucose, and 10 HEPES, pH adjusted to 7.4 with Tris-OH. The pipette solution contained (in mM): 85 Cs-aspartate, 40 CsCl, 4 MgCl2, 5 EGTA, 2 ATP2Na, 5 HEPES, and 8 creatine-phosphate, pH adjusted to 7.4 with CsOH. To determine voltage-dependence of activation, amplitude of tail currents at −50 mV after 5 ms test pulse (−40 to 90 mV) was normalized to the maximal tail current amplitude. […]

For another test, the system named is C-terminus of Cav2.1. Description: Co-immunoprecipitation assay in HEK cells, Cav2.1 C-terminus. It is filed as binding. Particulars: tagged proteins co-expressed in HEK cells. The procedure:
as §1, §2

Test [1] relates to mouse hippocampal primary culture neurons.
Method: Mouse hippocampal neurons primary culture. Hippocampal neurons were isolated from embryonic day 16 mice and plated at 1-2×10^5 cells per well in 24 well plate containing glass coverslips coated with poly-1-lysine and grown in serum-free NEUROBASAL™ media supplemented with B27, 0.5 mM L-glutamine (Invitrogen).
Transfection and immunostaining of mouse hippocampal neurons. […] Cultures were fixed with 4% paraformaldehyde in PBS 16 and 48 hours after transfection, permeabilized with 0.3% Triton X-100, blocked in 3% normal goat serum in PBS, and treated with mouse monoclonal anti-MAP-2 antibody (1:500; Sigma) and Alexa fluor 594 goat anti-mouse IgG antibody (1:1000; Molecular Probes).
TUNEL assay. […] Forty-eight hours after transfection, neuronal apoptosis was detected using DeadEndTM Fluorometric TUNEL System (Promega). Nuclei were visualized with Hoescht 33342 (Molecular Probes). These cells were also stained with anti-Myc antibody (1:200; Cell Signaling) and Alexa fluor 594 goat anti-rabbit IgG antibody (1:1000). All experiments were carried out in duplicate wells and at least repeated three times. Neuron cells were observed on a confocal microscope (OLYMPUS FLUOVIEW) following 48 hours post transfection.
Cell death analyses with EFHC1 mutants. […] Surviving cell numbers were scored by counting GFP fluorescent-positive cells that attached to dishes. At each counting, detached cells (dead cells) were carefully removed by changing culture medium. Morphologies of cells (cell shape, length and number of neurites, shrinkage, etc.) were not considered for the counting. Surviving cell numbers were scored at 24, 36, and 48 hours after transfection. Analyses were repeated twice by using two independently prepared expression construct DNAs. In total, neurons in seven wells of 24 well plates were counted for each transfection and time point. Experiments were performed in a blinded fashion.
The next test concerns the target T2, PQ type VDCC (Cav2.1) (Oryctolagus cuniculus, UniProt P27884).
T2 construct: expressed in transfected cells; host or cells: HEK cell line
In words: Patch-clamp analyses of HEK cell line with P/Q type VDCCs and wild type EFHC1 or mutant constructs. The format is cell-based.

A further test relates to C-terminus of Cav2.2. Description: Co-immunoprecipitation assay in HEK cells, Cav2.2 C-terminus. It is filed as binding. Particulars: tagged proteins co-expressed in HEK cells. The procedure: as §1, §2

This is an account of results in patent US11932908B2, “Compositions and methods for diagnosis and treatment of epilepsy” (THE REGENTS OF THE UNIVERSITY OF CALIFORNIA, priority 2004, dated 2024).

“Also recorded” adds a separate entry of the source. Where two headings read alike, the source gives them in different places.

T1 sequence (Q02343 whole entry): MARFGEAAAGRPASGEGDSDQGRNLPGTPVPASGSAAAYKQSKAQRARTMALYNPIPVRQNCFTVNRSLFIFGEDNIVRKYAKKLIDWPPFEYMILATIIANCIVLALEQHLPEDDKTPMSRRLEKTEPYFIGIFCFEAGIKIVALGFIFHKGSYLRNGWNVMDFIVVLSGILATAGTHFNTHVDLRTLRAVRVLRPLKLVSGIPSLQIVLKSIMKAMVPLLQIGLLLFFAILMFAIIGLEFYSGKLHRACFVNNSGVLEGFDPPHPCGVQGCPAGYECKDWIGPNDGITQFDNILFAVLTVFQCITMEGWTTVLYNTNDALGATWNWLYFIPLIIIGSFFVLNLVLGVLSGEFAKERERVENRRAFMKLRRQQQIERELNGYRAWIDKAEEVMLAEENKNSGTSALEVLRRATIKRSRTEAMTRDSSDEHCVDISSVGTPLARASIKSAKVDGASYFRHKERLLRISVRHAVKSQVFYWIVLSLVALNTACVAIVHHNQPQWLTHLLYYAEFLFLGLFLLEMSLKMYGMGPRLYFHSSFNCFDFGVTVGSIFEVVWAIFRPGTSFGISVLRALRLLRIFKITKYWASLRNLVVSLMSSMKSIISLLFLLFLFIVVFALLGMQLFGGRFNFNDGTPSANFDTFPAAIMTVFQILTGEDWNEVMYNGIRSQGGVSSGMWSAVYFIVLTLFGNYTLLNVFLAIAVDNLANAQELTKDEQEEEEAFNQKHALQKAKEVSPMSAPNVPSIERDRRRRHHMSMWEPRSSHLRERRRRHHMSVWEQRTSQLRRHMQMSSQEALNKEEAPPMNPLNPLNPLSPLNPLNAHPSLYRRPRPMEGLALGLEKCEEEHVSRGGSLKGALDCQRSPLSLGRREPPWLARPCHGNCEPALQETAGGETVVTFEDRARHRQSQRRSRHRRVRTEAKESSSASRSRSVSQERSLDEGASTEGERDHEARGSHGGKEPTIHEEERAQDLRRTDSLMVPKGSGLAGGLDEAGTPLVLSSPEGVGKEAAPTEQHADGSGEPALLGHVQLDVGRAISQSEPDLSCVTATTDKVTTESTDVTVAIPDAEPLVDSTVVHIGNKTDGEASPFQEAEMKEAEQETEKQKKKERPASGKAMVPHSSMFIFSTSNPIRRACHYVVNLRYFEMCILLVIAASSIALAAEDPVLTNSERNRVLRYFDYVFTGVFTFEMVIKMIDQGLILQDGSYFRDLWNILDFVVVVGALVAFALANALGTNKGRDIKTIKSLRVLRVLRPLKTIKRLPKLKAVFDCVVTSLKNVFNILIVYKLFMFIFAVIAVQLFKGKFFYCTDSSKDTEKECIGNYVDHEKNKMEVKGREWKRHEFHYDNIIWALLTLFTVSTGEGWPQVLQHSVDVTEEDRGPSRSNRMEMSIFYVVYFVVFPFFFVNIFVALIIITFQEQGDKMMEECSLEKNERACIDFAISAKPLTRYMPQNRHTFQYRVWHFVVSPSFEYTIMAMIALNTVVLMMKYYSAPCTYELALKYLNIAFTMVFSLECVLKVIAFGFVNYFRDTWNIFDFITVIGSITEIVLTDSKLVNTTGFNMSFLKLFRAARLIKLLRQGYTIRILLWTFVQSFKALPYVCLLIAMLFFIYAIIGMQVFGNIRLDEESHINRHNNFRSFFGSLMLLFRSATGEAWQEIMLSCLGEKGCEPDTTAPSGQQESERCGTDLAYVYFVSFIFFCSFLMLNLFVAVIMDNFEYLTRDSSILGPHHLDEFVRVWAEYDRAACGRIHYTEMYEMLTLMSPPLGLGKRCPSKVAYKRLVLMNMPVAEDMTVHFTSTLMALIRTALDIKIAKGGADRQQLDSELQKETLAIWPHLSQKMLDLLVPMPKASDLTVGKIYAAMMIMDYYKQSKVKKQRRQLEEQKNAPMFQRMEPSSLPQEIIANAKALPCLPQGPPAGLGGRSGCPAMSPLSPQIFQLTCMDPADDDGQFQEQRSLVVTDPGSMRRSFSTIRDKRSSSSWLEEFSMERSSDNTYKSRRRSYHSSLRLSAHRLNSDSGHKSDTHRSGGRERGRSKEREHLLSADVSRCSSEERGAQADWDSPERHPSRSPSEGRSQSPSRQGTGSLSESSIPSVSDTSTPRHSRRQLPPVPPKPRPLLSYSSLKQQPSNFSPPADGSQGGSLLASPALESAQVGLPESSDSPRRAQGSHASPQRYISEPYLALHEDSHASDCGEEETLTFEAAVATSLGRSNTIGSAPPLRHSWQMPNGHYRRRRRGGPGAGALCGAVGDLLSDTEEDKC
T1 sequence (P13806 27-1106 partner): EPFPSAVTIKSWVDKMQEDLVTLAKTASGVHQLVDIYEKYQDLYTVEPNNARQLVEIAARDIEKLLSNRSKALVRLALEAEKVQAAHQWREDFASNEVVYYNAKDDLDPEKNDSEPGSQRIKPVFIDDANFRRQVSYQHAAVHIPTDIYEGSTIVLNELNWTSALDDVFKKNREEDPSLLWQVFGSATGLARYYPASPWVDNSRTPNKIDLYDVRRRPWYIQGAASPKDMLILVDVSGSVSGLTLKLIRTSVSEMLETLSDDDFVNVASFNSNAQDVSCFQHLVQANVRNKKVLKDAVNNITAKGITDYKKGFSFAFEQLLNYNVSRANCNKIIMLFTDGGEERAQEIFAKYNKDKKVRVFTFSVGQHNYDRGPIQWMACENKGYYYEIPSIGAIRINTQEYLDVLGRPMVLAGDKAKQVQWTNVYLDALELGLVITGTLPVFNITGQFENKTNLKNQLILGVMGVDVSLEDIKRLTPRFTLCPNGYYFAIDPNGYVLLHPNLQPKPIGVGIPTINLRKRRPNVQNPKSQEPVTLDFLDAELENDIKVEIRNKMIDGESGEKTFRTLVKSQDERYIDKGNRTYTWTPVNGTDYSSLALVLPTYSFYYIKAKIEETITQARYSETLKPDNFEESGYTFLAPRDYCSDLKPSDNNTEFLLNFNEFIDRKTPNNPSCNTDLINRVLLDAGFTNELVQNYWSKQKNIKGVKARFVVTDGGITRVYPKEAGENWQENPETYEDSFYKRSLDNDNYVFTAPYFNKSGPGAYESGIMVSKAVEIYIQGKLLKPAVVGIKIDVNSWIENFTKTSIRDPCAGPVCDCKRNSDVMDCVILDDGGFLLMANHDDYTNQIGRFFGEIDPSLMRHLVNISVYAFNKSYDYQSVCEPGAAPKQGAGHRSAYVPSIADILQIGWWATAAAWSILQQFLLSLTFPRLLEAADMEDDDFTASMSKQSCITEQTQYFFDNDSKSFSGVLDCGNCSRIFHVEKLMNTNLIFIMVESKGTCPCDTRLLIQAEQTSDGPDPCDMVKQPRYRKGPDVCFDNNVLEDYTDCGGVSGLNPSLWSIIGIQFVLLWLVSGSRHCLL
T1 sequence (P19517 whole entry partner): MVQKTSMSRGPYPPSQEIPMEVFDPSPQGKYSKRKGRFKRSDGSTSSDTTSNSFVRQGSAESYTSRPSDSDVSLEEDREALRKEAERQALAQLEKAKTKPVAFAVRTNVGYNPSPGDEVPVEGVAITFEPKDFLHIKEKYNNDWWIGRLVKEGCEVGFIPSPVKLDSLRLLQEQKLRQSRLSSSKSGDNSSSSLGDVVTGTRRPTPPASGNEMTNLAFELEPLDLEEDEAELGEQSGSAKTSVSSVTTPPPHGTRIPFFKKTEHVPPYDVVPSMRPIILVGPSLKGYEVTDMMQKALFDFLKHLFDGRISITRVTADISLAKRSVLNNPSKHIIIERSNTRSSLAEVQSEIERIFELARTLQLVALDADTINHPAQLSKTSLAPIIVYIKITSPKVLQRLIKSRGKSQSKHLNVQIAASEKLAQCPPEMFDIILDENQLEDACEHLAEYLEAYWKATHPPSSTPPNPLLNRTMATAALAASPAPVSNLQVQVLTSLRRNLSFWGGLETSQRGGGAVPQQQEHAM

B1: EFHC1: myoclonin 1, a 640 amino acid protein with an EF-hand motif encoded by EFHC1 transcript A (SEQ ID NO: 4) (protein, listed as Homo sapiens)
chain: MVSNPVHGLPFLPGTSFKDSTKTAFHRSQTLSYRNGYAIVRRPTVGIGGDRLQFNQLSQAELDELASKAPVLTYGQPKQAPPADFIPAHVAFDKKVLKFDAYFQEDVPMSTEEQYRIRQVNIYYYLEDDSMSVIEPVVENSGILQGKLIKRQRLAKNDRGDHYHWKDLNRGINITIYGKTFRVVDCDQFTQVFLESQGIELNPPEKMALDPYTELRKQPLRKYVTPSDFDQLKQFLTFDKQVLRFYAIWDDTDSMYGECRTYIIHYYLMDDTVEIREVHERNDGRDPFPLLMNRQRVPKVLVENAKNFPQCVLEISDQEVLEWYTAKDFIVGKSLTILGRTFFIYDCDPFTRRYYKEKFGITDLPRIDVSKREPPPVKQELPPYNGFGLVEDSAQNCFTLIPKAPKKDVIKMLVNDNKVLRYLAVLESPIPEDKDRRFVFSYFLATDMISIFEPPVRNSGIIGGKYLGRTKVVKPYSTVDNPVYYGPSDFFIGAVIEVFGHRFIILDTDEYVLKYMESNAAQYSPEALASIQNHVRKREAPAPEAESKQTEKDPGVQELEALIDTIQKQLKDHSCKDNIREAFQIYDKEASGYVDRDMFFKICESLNVPVDDSLVKELIRMCSHGEGKINYYNFVRAFSN
On to B1, for which, in the test on C-terminus of Cav2.3, the “co-immunoprecipitation with Cav2.3 C-terminus” value was “co-immunoprecipitated”. Also, the Bid activation result with Bid is recorded as “activated Bid in a number of EFHC1-expressing neurons”. The “R-type Ca2+ current generated by Cav2.3” value in the test with R-type VDCC (Cav2.3) is “specifically increased; also recorded: significantly increased”; in the test with R-type VDCC (Cav2.3) (listed as WT EFHC1), “significantly up-regulates”. Moreover, the “co-immunoprecipitation with Cav2.1 C-terminus” value in the test with C-terminus of Cav2.1 is “did not”. The neuronal morphology entry in test [1] (16 hours post-transfection) is “shorter neurites and lesser branches; also recorded: shorter neurites and fewer branches”; in test [1] (16 hours post-transfection, listed as GFP-EFHC1), “shorter neurites and less branches”; in test [1] (48 hours post-transfection) it was “signs of neurodegeneration and cell death; also recorded: neurodegeneratve morphologies”; in test [1] (48 hours post-transfection, listed as GFP-EFHC1), “signs of neurodegeneration and cell death”. The “apoptosis (TUNEL) on EFHC1 overexpression” value in test [1] (48 hours after transfection) is “induced apoptosis; also recorded: overlap with TUNEL positive cells”. Moreover, the “Ca2+ current density of P/Q-type VDCC (Cav2.1)” value with PQ type VDCC (Cav2.1) (cells co-transfected with P/Q-type VDCC and EFHC1 constructs) is on record as “did not show such increase; also recorded: did not significantly affect”. The “Activation V0.5 (mV)” value with PQ type VDCC (Cav2.1) (half-maximal voltage of activation, mean ± SEM) was 23.9 ± 1.0 mV. In addition, the “Inactivation V0.5 (mV)” value in the test with PQ type VDCC (Cav2.1) (half-maximal voltage of inactivation, mean ± SEM) is given as −8.0 ± 0.8 mV. The “inactivation speed of P/Q type VDCC (decelerating effect on calcium inactivation)” value in the test with PQ type VDCC (Cav2.1) (patch-clamp) is recorded as “significantly decelerated”. The “voltage dependence of activation” value with PQ type VDCC (Cav2.1) (patch-clamp) is “did not significantly affect”. Moreover, in the test with PQ type VDCC (Cav2.1) (patch-clamp), the “voltage dependence of inactivation” value is reported as “toward positive potentials”. The “Activation k (mV)” value in the test with PQ type VDCC (Cav2.1) (slope factor, mean ± SEM) was determined as 8.63 ± 0.35 mV. The “Inactivation K (mV)” value with PQ type VDCC (Cav2.1) (slope factor, mean ± SEM) is 6.73 ± 0.15 mV. In the test on C-terminus of Cav2.2, the “co-immunoprecipitation with Cav2.2 C-terminus” value is “did not”.
